Reference: the supplement of paper PMC10126150
± gives the standard deviation of the averaged measurements.

Test system: ATP
Experiment: switch fluorescence ratio, 500 uM ATP over buffer (Cy3 cluster intensity, sum of 5 cycles each) (fold (ratio)); higher = stronger signal-on switching upon ATP binding; sequences stand for … in TCGTCGGCAGCGTCAGATGTGTATAAGAGACAGTTTTTTTTTTTTTTTTTTTTTTTTT…TC
Details: aptamer strand: ATP DNA aptamer (quencher-CACCTGGGGGAGTATTGCGGAGGAAGG + anchor), 100 nM annealed; ATP concentration: 500 uM
Summary of the method: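 Cy3-labelled switching-strand clusters on a modified Illumina MiSeq flow-cell were annealed to 100 nM quencher-labelled ATP aptamer and imaged first in selection buffer, then after 15 min with 500 uM ATP at 22 °C. NaOH stripping and re-annealing separated each of five buffer/ATP cycles, and clusters outside 100-1000 RFU were excluded. The fluorescence ratio sums target-cycle Cy3 intensity over buffer-cycle Cy3 intensity per cluster and averages it per switch-domain sequence.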
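Note: ATP exposure 15 min at 22 °C before imaging.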

Row | Sequence | switch fluorescence ratio
1 | GCTGTACGAT | 1.16 ± 0.012
2 | GCTGTAGTTT | 0.973 ± 0.015
3 | GCTGTATATT | 0.993 ± 0.0017
4 | GCTGTCATTC | 1.01 ± 0.014
5 | GCTGTCGGTG | 0.972 ± 0.0079
6 | GCTGTCGTTA | 1.015 ± 0.01
7 | GCTGTGGCT | 0.972 ± 0.01
8 | GCTGTGGTAC | 1.188 ± 0.0086
9 | GCTGTGTCCA | 0.993 ± 0.01
10 | GCTGTGTGGG | 1.03 ± 0.032
11 | GCTGTTAGAG | 1.02 ± 0.022
12 | GCTGTTAGCA | 1.02 ± 0.034
13 | GCTGTTCATG | 0.993 ± 0.015
14 | GCTGTTGAAT | 1.02 ± 0.041
15 | GCTGTTGGAA | 0.985 ± 0.012
16 | GCTGTTGTTC | 0.979 ± 0.041
17 | GCTGTTTACG | 1.03 ± 0.031
18 | GCTGTTTACT | 1 ± 0.012
19 | GCTGTTTCCC | 0.989 ± 0.024
20 | GCTTAATCAG | 0.988 ± 0.022
21 | GCTTAATTAG | 1.02 ± 0.017
22 | GCTTACTGTG | 1.01 ± 0.037

Row | Sequence | switch fluorescence ratio
23 | GCTTAGGGTG | 1.01 ± 0.015
24 | GCTTAGTGGG | 0.954 ± 0.013
25 | GCTTATAATT | 0.991 ± 0.013
26 | GCTTATCCTG | 0.982 ± 0.041
27 | GCTTATCGGT | 0.996 ± 0.018
28 | GCTTCAGAAA | 1 ± 0.066
29 | GCTTCAGGG | 1 ± 0.019
30 | GCTTCCCAGC | 1.19 ± 0.032
31 | GCTTCGGGCC | 0.991 ± 0.015
32 | GCTTCTATGC | 1.02 ± 0.037
33 | GCTTGAAGGG | 1.01 ± 0.027
34 | GCTTGAAGTT | 0.991 ± 0.068
35 | GCTTGAATTT | 0.984 ± 0.02
36 | GCTTGAGTAC | 0.992 ± 0.037
37 | GCTTGATACG | 1.06 ± 0.099
38 | GCTTGCATGC | 1.04 ± 0.022
39 | GCTTGCGGGG | 0.9774 ± 0.0015
40 | GCTTGGAGAG | 0.99 ± 0.013
41 | GCTTGGCAGT | 1.03 ± 0.018
42 | GCTTGGCTCG | 1.01 ± 0.027
43 | GCTTGGCTTG | 1.02 ± 0.025
44 | GCTTGGTGCA | 0.997 ± 0.031

Row | Sequence | switch fluorescence ratio
45 | GCTTGGTGTC | 1.05 ± 0.014
46 | GCTTGTACGG | 1.01 ± 0.039
47 | GCTTGTTTGA | 1.01 ± 0.014
48 | GCTTTACCAG | 0.989 ± 0.013
49 | GCTTTAGTGG | 0.963 ± 0.012
50 | GCTTTCAGGG | 1.01 ± 0.025
51 | GCTTTGGGAA | 1.03 ± 0.04
52 | GCTTTTGCAC | 1.028 ± 0.0078
53 | GCTTTTGGCG | 1.02 ± 0.021
54 | GCTTTTGGTA | 1.002 ± 0.0095
55 | GCTTTTGTGG | 0.986 ± 0.035
56 | GCTTTTTGGC | 1.03 ± 0.063
57 | GCTTTTTTGG | 0.994 ± 0.025
58 | GGAAAAACGT | 0.998 ± 0.015
59 | GGAAAAAGGA | 0.9423 ± 0.0081
60 | GGAAAAAGGT | 1.05 ± 0.14
61 | GGAAAATTTA | 0.963 ± 0.059
62 | GGAAACGGGT | 1.02 ± 0.014
63 | GGAAACTCGG | 0.986 ± 0.029
64 | GGAAACTTTT | 1.07 ± 0.098
65 | GGAAAGGTCG | 1.04 ± 0.039
66 | GGAAATCGGG | 0.989 ± 0.027

Row | Sequence | switch fluorescence ratio
67 | GGAAATGGTG | 1.1 ± 0.11
68 | GGAAATGTTG | 0.991 ± 0.041
69 | GGAACGCAGG | 0.9981 ± 0.0022
70 | GGAACGGGGT | 1.01 ± 0.048
71 | GGAAGATACG | 1.03 ± 0.015
72 | GGAAGATGTG | 1.02 ± 0.016
73 | GGAAGCTTAA | 1.048 ± 0.0032
74 | GGAAGGATTC | 0.999 ± 0.013
75 | GGAAGGGAAC | 0.988 ± 0.033
76 | GGAAGGGCGA | 0.9569 ± 0.0068
77 | GGAAGGGGTG | 1.01 ± 0.035
78 | GGAAGGGGTT | 1.03 ± 0.089
79 | GGAAGGTAAT | 1 ± 0.048
80 | GGAAGGTGGT | 0.987 ± 0.024
81 | GGAAGTTGGG | 0.98 ± 0.023
82 | GGAAGTTTTT | 0.9946 ± 0.0079
83 | GGAATAAGGG | 0.995 ± 0.015
84 | GGAATACGAT | 1.09 ± 0.16
85 | GGAATAGCGG | 0.993 ± 0.029
